{"source": "IntAct's records for PubMed 31631010", "parents": {"B1": {"name": "Palmitoyltransferase ZDHHC5 (Mus musculus), Q8VDZ4 (parent)", "chain": "MPAESGKRFKPSKYVPVSAAAIFLVGATTLFFAFTCPGLSLNVSPAVPIYNAIMFLFVLANFSMATFMDPGIFPRAEEDEDKEDDFRAPLYKTVEIKGIQVRMKWCATCRFYRPPRCSHCSVCDNCVEEFDHHCPWVNNCIGRRNYRYFFLFLLSLTAHIMGVFGFGLLYVLYHIEELSGVRTAVTMAVMCVAGLFFIPVAGLTGFHVVLVARGRTTNEQVTGKFRGGVNPFTNGCCNNVSRVLCSSPAPRYLGRPKKEKTIVIRPPFLRPEVSDGQITVKIMDNGIQGELRRTKSKGSLEITESQSADAEPPPPPKPDLSRYTGLRTHLSLATNEDSSLLGKDSPPTPTMYKYRPGYSSSSTSAAMPHSSSAKLSRGDSLKEPTSIADSSRHPSYRSEPSLEPESFRSPTFGKSFHFDPLSSGSRSSSLKSAQGTGFELGQLQSIRSEGTTSTSYKSLANQTRNGSLSYDSLLTPSDSPDFESVQAGPEPDPPLGYTSPFLSARLAQQREAERHPRLLPTGPPHREPSPVRYDNLSRHIVASLQEREKLLRQSPPLAGREEEPGLGDSGIQSTPGSGHAPRTSSSSDDSKRSPLSKTPLGRPAVPRFGKPDGLRSRGLGSPEPGTTAPYLGRSISYSSQKAPSGVSETEEVALQPLLTPKDEVQLKTTYSKSNGQPKSIGSASPGPGQPPLSSPTRGGVKKVSGVGGTTYEISV"}}, "data": [{"variants_of": "B1", "settings": "with goga7_human GOLGA7, Q7Z5G4", "values": [{"variant": "C134S", "effect of a mutation on the interaction": "with no effect"}, {"variant": "C236S;C237S;C245S", "effect of a mutation on the interaction": "disrupting interaction strength"}]}]}
